Assay results reported in patent US20200095341A1 (UNIVERSITEIT TWENTE, published 2020).
Ends that are not written are not given here.

Assays:
hTGFB1 (Peprotech) = hTGFB1 (Peprotech) (human, UniProt P01137 279-390); experiment: cell-based or functional assay
hBMP-2 (PeproTech) = hBMP-2 (PeproTech) (human, UniProt P12643 283-396); experiment: cell-based or functional assay
endogenous BMP-2 (rat) = biological target: T1, endogenous BMP-2 (rat) (rat, UniProt P49001 280-393, limits assumed); experiment: immunofluorescence against BMP-2 of PCL films implanted subcutaneously in rats for 7 days
T1 construct: also called BMP-2 released during inflammation
Source text: Both native and functionalized PCL films were subcutaneously implanted in the back of rats, facing the fascia. Each animal, with a total of three animals per time point, was implanted with both native and functionalized film. At day 3 and day 7 after implantation, samples were harvested and used for immunofluorescence against BMP-2 and for histology. Only the samples from day 7 were used for immunofluorescence against BMP-2.

hVEGF (PeproTech) [1] = biological target: T2, hVEGF (PeproTech) (human, UniProt P15692-4 27-191, limits assumed); experiment: immunofluorescence against hVEGF on peptide-functionalized PCL films, 1 µg/mL hVEGF
T2 construct: Commercial growth factor; also called ihVEGF; shVEGF
Procedure: (§1) Samples were incubated with 1 μg/mL of VEGF (PeproTech) in 0.5% (v/v) PBS TWEEN®20 (PBST) for one hour with gentle agitation. The films were then washed three times for 10 minutes with 0.5% (v/v) PBST and then with PBS for a further 10 minutes. Next, the films were blocked for one hour with PBS containing 1% (w/v) bovine serum albumin (BSA) and subsequently washed as described above. Afterwards, the films were incubated with a primary antibody (2 μg/mL; rabbit polyclonal anti-human VEGF, PeproTech) in the blocking solution during one hour with agitation. […] Before image acquisition, the films were washed three times for 10 minutes with 1 mM PBST, rinsed three times with PBS and dried under a N2 stream. Fluorescence intensity was quantified using ImageJ.

hVEGF (PeproTech) [2] = biological target: T2, hVEGF (PeproTech); experiment: immunofluorescence against hVEGF on peptide-functionalized POLY-TAPE, 1 µg/mL hVEGF
Procedure: Fluorescence intensity was quantified using ImageJ. For cell experiments, the sterile PCL films were washed three times with PBS and incubated with 0.5 μg of VEGF in 0.5% (v/v) PBST for one hour with gentle agitation. Subsequently, the films were extensively washed with PBST (0.5%) and PBS to remove any traces of the washing buffer prior to cell seeding.
Incubation with hVEGF, immunofluorescence staining and fluorescence quantification was performed as mentioned above for the PCL films.
The POLY-TAPE® was oxygen plasma treated (OPT) for 5 minutes and incubated for one hour with 1 M NaOH in order to hydrolyze the esters and expose the carboxylic acids.

hVEGF (PeproTech) [3] = biological target: T2, hVEGF (PeproTech); experiment: immunofluorescence against hVEGF on peptide-functionalized Chondro-Gide, 1 µg/mL hVEGF
Procedure: as §1
(§2) Both Chondro-Gide and Collagen Meniscus Implant (CMI) were incubated with 50 mM of NHS/EDC for 2 hours. […] Incubation with hVEGF, immunofluorescence staining and fluorescence quantification was performed as mentioned above for the PCL films.

hVEGF (PeproTech) [4] = biological target: T2, hVEGF (PeproTech); experiment: immunofluorescence against hVEGF on peptide-functionalized Collagen Meniscus Implant, 1 µg/mL hVEGF
Procedure: as §1, §2

T2 sequence (P15692 other isoform, or with tags, fused parts or gaps limits assumed): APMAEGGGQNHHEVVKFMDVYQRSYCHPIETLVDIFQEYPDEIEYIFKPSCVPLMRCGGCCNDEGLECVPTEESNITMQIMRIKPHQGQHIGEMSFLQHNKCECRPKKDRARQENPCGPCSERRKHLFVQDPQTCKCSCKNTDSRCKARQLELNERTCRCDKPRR
Sequence of hBMP-2 (PeproTech) (P12643 283-396 limits assumed): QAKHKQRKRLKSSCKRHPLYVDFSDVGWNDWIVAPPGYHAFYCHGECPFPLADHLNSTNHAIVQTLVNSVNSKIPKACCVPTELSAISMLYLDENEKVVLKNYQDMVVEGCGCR
Sequence of hTGFB1 (Peprotech) (P01137 279-390 limits assumed): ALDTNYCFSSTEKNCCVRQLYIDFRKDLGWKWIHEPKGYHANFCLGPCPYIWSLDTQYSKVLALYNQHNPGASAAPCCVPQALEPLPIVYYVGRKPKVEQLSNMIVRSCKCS
T1 sequence (P49001 280-393 limits assumed): as the sequence (P12643 283-396 limits assumed) above

B1: TGFB1 binding peptide KGLPLGNSH (peptide)
peptide: Ac-KGLPLGNSH-NH2
modifications: not fully specified (residue 1); also: lysine side chain covalently coupled to PCL film
**Q.** For B1, which “luciferase activity of TGFB1 reporter cell line (MLEC, PAI-1 promoter), fold over same films without hTGFB1 incubation” value (hTGFB1 (Peprotech)) is on record?
**A.** 9 fold

B2: BMP-2-binding peptide KGYPVHPST (peptide)
peptide: Ac-KGYPVHPST
modifications: not fully specified (residue 1); also: lysine side chain covalently coupled to film or tape
notes: also called YPVHPST with an extra glycine and lysine at the N-termini
**Q.** For B2, which “ALP produced by C2C12 after 7 days, fold over controls; functionalized films incubated with 5.0 µg hBMP-2” value (hBMP-2 (PeproTech)) is on record?
**A.** 12.7 fold

**Q.** And the “ALP production by C2C12, ratio to hBMP-2 nonspecifically adsorbed on native films” value (hBMP-2 (PeproTech))?
**A.** 2.4 fold

**Q.** What about the “luciferase of BMP-2 reporter cell line (C2C12 Luc), fold increase; films incubated with 500 ng hBMP-2” value (hBMP-2 (PeproTech)) of the same binder?
**A.** 5.3 fold

**Q.** And the “luciferase of BMP-2 reporter cell line (C2C12 Luc, ID1 promoter), normalized to films without hBMP-2; films incubated with 500 ng hBMP-2” value (hBMP-2 (PeproTech))?
**A.** 10.4 fold (normalized luciferase)

**Q.** Does B2 bind (endogenous BMP-2 (rat))?
**A.** binds

B3: VEGF-binding peptide KGSWWAPFH (peptide)
peptide: Ac-KGSWWAPFH
modifications: not fully specified (residue 1); also: lysine side chain covalently coupled to film or device
notes: also called SWWAPFH with an extra glycine and lysine at the N-termini
**Q.** What does the source list for B3?
**A.** fluorescence intensity, fold over non-functionalized films incubated with hVEGF (hVEGF (PeproTech) [1]): 7 fold; fluorescence signal, fold over native POLY-TAPE with hVEGF (hVEGF (PeproTech) [2]): 2.3 fold; fluorescence signal, fold over oxygen plasma treated POLY-TAPE with hVEGF (hVEGF (PeproTech) [2]): 1.5 fold; fluorescence signal, fold over Chondro-Gide functionalized with NHS/EDC and incubated with hVEGF (hVEGF (PeproTech) [3]): 2.2 fold; fluorescence signal, fold (reference taken as native CMI incubated with hVEGF) (hVEGF (PeproTech) [4]): 3.3 fold

B4: scrambled peptide KGHNLGLPS (peptide)
peptide: Ac-KGHNLGLPS-NH2
modifications: not fully specified (residue 1); also: lysine side chain covalently coupled to PCL film
**Q.** How did the “luciferase activity of TGFB1 reporter cell line (MLEC, PAI-1 promoter), fold over same films without hTGFB1 incubation” value (hTGFB1 (Peprotech)) turn out when B4 was run?
**A.** 3 fold
